In US20150315292A1 (VANDERBILT UNIVERSITY, published 2015):

What was measured:
[1] = target: T1, human fXII with the EGF2 domain replaced with the corresponding domain from HGFA (human, UniProt P00748 20-173; Q04756 241-279; P00748 211-615, limits assumed); experiment: Western blot after SDS-PAGE
T1 construct: Expressed in human fibroblasts (HEK293) and blotted from conditioned medium; also called fXII/HGFA chimera for the EGF2 domain
T1 sequence (looked up): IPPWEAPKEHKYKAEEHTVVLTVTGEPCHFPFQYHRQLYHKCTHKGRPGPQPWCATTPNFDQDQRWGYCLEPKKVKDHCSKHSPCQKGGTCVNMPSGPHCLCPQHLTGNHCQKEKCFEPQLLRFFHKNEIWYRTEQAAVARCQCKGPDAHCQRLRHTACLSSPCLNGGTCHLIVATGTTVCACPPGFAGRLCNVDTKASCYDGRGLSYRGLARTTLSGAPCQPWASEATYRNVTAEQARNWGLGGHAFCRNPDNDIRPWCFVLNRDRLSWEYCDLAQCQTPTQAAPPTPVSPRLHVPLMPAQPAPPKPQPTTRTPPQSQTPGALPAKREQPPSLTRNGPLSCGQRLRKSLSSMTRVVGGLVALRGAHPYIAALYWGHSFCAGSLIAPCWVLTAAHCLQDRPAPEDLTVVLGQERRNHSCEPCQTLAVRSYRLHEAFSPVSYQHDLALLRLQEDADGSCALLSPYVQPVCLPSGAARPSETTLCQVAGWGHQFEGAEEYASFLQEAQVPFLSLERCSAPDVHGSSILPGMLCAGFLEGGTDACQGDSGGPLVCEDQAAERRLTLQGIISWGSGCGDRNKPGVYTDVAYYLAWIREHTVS
From the text: (§1) AB043 and AB042 both recognize baboon and human fXII, indicating they can be used for studies in baboon thrombosis models. […] Chimeras in which individual fXII domains were replaced with those of HGFA were expressed in human fibroblasts.

[2] = target: T2, human fXII with the kringle domain replaced with the corresponding domain from HGFA (human, UniProt P00748 20-216; Q04756 286-367; P00748 296-615, limits assumed); experiment: Western blot after SDS-PAGE
T2 construct: Expressed in human fibroblasts (HEK293) and blotted from conditioned medium; also called fXII/HGFA kringle domain chimera; KNG
T2 sequence (looked up): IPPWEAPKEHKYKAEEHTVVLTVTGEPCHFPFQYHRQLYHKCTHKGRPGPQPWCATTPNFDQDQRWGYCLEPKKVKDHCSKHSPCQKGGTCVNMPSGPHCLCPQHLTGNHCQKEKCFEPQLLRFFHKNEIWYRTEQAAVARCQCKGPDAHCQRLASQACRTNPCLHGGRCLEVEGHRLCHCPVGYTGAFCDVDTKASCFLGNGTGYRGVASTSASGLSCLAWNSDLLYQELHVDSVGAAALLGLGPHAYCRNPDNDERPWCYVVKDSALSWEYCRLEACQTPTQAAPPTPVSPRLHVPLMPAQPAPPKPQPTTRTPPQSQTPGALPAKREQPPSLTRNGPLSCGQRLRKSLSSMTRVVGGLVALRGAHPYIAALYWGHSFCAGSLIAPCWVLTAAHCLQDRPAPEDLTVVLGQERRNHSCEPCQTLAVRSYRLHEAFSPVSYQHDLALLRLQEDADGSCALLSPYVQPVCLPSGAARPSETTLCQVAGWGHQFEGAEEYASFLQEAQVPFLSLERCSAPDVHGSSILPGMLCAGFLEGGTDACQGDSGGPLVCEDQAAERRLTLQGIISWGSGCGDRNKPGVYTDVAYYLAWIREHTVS
From the text: as §1

- binding result [1]: no binding
- binding result [2]: no binding
B1: monoclonal anti-human fXII antibody AB042 (antibody, V domains shown)
VH: EVQLQQSGAELVRPGASVKLSCTASGFNIKDDYMHWVKQRPEQGLEWIGWIDPENGDTEYASKFQGKATITSDTSSNTAYLQLSSLTSEDTAVYYCTENYYGSSFFAYWGQGTLVTVSA
VL: DIVMTQATPSVPVTPGESVSISCRSSKSLLHSNGITYLYWFLQRPGQSPQRLIYYMSNLASGVPDRFSGRGSGTDFTLRISRVEAEDVGVYYCMQSLEYPYTFGGGTKLEIKR
notes: Mouse hybridoma IgG raised in fXII knockout mice immunized with human fXII
